Source: article doi:10.1101/2023.12.10.570967

Molecular target: Drosophila Eggless/SetDB1 tandem Tudor domains (3TD, aa 444-700), wild type (Drosophila) (UniProt Q32KD2)
Test: SPR

Chain of UniProt Q32KD2 (Q32KD2 444-700): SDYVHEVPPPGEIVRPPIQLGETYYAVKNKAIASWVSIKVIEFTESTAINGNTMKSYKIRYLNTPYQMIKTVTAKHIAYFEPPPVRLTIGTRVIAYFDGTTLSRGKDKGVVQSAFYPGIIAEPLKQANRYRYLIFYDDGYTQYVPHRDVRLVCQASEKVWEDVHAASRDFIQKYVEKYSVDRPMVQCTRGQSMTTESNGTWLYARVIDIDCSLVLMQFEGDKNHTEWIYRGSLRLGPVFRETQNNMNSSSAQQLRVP

Substance: H3K14ac peptide
- Kd: 486 µM
